The target in assay [1] is T1, human TfR ectodomain fused to a mouse IgG1 Fc fragment (human, UniProt P02786 89-760).
T1 construct: extracellular domain; ectodomain fused to the N-terminal end of the Fc, made in-house; not shown: mouse IgG1 Fc fragment
Nature of the assay: SPR, kinetic. A digest of the protocol: (§1)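 TfR–mouse Fc fusions, produced in-house, captured on HC 1500M or CM5 chips either directly or via immobilized anti-mouse IgG. VHHs injected in single-cycle or multiple-cycle kinetic mode on Biacore T200.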

Assay [2] concerns the target T2, mouse TfR ectodomain fused to a mouse IgG1 Fc fragment (mouse, UniProt Q62351 89-763).
T2 construct: extracellular domain; not shown: mouse IgG1 Fc fragment
Nature of the assay: SPR, kinetic. A digest of the protocol:
as §1
(In general: Surface plasmon resonance follows binding to a sensor surface in real time, without labels.)

The target in assay [3] is T3, rhesus monkey TfR ectodomain fused to a mouse IgG1 Fc fragment (rhesus monkey, UniProt I0FKY7 89-760).
T3 construct: extracellular domain; not shown: mouse IgG1 Fc fragment
Nature of the assay: SPR, kinetic. An outline of the steps:
as §1

Assay [4] has as its target T2, mouse TfR ectodomain fused to a mouse …. Nature of the assay: SPR, at equilibrium. A digest of the protocol:
as §1

Assay [5] deals with T4, human transferrin receptor (hTfR) fused to EGFP, on CHO cells (human, UniProt P02786 1-760).
T4 construct: whole, on cells; also called human TfR; CHO-hTfR-EGFP; not shown: EGFP from pEGFP-C1 vector, fused to the N-terminal (intracellular) end of hTfR
T4 sequence (P02786 whole entry, the tested form may be a part): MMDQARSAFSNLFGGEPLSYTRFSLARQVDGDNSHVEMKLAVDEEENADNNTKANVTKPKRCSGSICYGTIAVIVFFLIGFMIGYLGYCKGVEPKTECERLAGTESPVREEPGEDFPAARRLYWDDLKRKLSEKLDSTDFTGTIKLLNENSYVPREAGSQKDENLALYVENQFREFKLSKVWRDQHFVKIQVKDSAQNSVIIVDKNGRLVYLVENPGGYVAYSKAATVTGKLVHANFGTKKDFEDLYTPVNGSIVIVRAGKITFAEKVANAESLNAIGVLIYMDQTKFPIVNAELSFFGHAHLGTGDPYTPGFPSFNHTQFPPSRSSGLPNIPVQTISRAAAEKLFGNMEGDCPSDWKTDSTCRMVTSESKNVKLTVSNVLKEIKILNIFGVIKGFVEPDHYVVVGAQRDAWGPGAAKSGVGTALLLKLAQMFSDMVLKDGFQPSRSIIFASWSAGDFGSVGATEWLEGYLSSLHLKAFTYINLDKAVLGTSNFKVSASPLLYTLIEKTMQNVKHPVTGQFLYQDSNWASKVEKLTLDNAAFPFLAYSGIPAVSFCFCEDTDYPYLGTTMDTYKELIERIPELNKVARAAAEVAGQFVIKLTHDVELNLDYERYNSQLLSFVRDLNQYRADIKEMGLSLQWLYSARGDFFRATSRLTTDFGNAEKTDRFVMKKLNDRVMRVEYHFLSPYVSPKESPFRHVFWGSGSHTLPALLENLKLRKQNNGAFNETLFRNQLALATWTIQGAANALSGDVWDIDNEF
Nature of the assay: apparent Kd, flow cytometry, CHO cells. A digest of the protocol: (§2)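 CHO cells expressing TfR-EGFP fusions, blocked in PBS/BSA 2%, then incubated with increasing VHH concentrations for 1 hr at 4° C. Bound VHH detected via anti-6His antibody and Alexa647 secondary, cells PFA-fixed, read by flow cytometry. Apparent Kd from nonlinear fit.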
On the technique in general: Flow cytometry measures light scatter and fluorescence of single cells or particles in a stream.

Assay [6] addresses T5, mouse transferrin receptor (mTfR) fused to EGFP, on CHO cells (mouse, UniProt Q62351 1-763).
T5 construct: whole, on cells; also called mouse TfR; CHO-mTfR-EGFP; not shown: EGFP
Nature of the assay: apparent Kd, flow cytometry, CHO cells. An outline of the steps: as §2

The target of assay [7] is T6, rhesus monkey transferrin receptor (rhTfR) fused to EGFP, on CHO cells (rhesus monkey).
T6 construct: whole, on cells; also called rhesus monkey TfR
Put plainly: apparent Kd, flow cytometry, CHO cells. A digest of the protocol: as §2

For assay [8], the target named is T7, murine TfR expressed by murine neuroblastoma Neuro-2a cells (mouse, UniProt Q62351 1-763).
T7 construct: whole, on cells; also called mTfR (N2a cells)
T7 sequence (Q62351 whole entry): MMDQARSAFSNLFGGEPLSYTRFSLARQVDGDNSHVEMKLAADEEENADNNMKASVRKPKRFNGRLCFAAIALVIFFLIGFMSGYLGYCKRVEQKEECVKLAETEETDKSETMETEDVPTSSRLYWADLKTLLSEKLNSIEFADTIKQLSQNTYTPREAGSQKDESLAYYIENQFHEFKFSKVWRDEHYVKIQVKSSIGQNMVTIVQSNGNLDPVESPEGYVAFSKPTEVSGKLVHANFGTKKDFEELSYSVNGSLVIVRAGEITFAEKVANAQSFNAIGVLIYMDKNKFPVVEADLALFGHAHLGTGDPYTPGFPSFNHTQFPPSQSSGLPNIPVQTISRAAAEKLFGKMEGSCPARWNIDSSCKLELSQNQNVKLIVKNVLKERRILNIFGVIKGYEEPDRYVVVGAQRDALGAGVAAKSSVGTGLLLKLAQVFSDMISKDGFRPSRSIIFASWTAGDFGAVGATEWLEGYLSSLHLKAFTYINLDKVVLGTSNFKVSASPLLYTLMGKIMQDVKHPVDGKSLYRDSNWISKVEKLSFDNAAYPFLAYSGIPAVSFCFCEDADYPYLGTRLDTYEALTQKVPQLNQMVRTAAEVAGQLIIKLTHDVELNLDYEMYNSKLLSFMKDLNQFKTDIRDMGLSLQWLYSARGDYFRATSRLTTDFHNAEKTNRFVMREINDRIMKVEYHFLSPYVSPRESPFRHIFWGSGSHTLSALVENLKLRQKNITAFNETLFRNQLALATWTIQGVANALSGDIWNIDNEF
Nature of the assay: competition with the fluorescent reference VHH on Neuro-2a cells as in FIG. 25; Ki/app on mTfR, free VHH. The protocol:
(§3) The binding of VHH-Oligo and VHH-hFc-Oligo conjugates to mTfR was evaluated using a competition assay on living cells expressing the receptor of interest, namely murine neuroblastoma Neuro-2a cells (N2a). N2a cells were grown in Dulbecco's Modified Eagle Medium (DMEM) GlutaMAX supplemented with 10% v/v FBS in 5% CO₂ at 37° C. Cells were seeded two days before experiments in 96-well plates at a density of 50.000 cells/well. […] Resuspended cells were transferred in a 96-deepwell plate (V-bottom) containing 1% fetal bovine serum (FBS)/0.02% sodium azide in phosphate-buffered saline (PBS) and then centrifuged for 5 min at 2000 rpm at 4° C. After removing the supernatant, 5 mM EDTA in D-PBS and 4% paraformaldehyde (PFA) (v/v 1:1) were added into wells to fix cells for 15 min at room temperature. PFA was removed by centrifugation (5 min, 3000 rpm, 4° C.) and cells were resuspended with 5 mM EDTA in D-PBS. Then the cellular A680-associated fluorescence signal was quantified using an Attune™ NxT flow cytometer (Thermo Fisher Scientific) equipped with Attune™ NxT v3.1.2. Experimental data (experimental triplicates) were fitted with GraphPad Prism® software using a nonlinear fit to determine the apparent Ki inhibition constants.

For assay [9], the target named is T7, murine TfR expressed by murine …. Nature of the assay: competition with C5-Alexa680 (100 nM) on living Neuro-2a cells, 3 hrs at 37 C, flow cytometry; Ki/app, mean ± SD. The method, then: as §3
The target in assay [10] is T4, human transferrin receptor (hTfR) fused …. Nature of the assay: flow cytometry on CHO-hTfR-EGFP cells, 1 hr at 4 C, anti-6His + Alexa647 anti-mouse; ratio to background fluorescence. The protocol: FIGS. 15A-15H: In vitro gene silencing activity of VHH-siGFPst1 bioconjugates. […] CHO-hTfR-EGFP cells were incubated 1 hr at 4° C. with various concentrations of the indicated compounds. Detection of VHHs was performed using a primary mouse anti-6His (1/1000) and an Alexa647-conjugated anti-mouse secondary antibody (1/400). Measurements of cell-surface signal associated to VHH were performed using flow cytometry. The results are expressed as the ratio of Alexa647-associated fluorescence intensity of test compounds to that of background fluorescence. […] The total fluorescence associated to the EGFP protein was then quantified using flow cytometry and rationalized to that of untreated (control) cells (set at 100%) *** p≤0.001. […] The total fluorescence associated with the EGFP protein was then quantified using flow cytometry and rationalized to that of untreated (control) cells (set at 100%). […] CHO-hTfR-EGFP cells were incubated with the indicated compounds at 1 μM during 120 hrs at 37° C. Data were processed and analyzed as described in (B). *** p≤0.001 vs. untreated cells. […] The total fluorescence associated with the EGFP protein was then quantified using flow cytometry and rationalized to that of untreated (control) cells (set at 100%).

For assay [11], the target named is T5, mouse transferrin receptor (mTfR) fused …. Put plainly: cell-based flow cytometry assay on mTfR-expressing cells (as in Example XI).
For assay [12] the target is unchanged. Nature of the assay: cell-based flow cytometry assay on mTfR-expressing cells (as in Example XI); Kd/app.
Assay [13] addresses T4, human transferrin receptor (hTfR) fused …. Nature of the assay: apparent Kd, cell-based assay.
Assay [14] has the same target. Put plainly: apparent Kd, flow cytometry, CHO cells. The method, then: All experiments were performed in 96 well plates using 2×10⁵ cells/well, at 4° C. with shaking. CHO cell lines stably expressing the hTfR or the mTfR fused to EGFP or CHO WT cells were saturated with PBS/BSA 2% solution during 30 min to avoid non-specific binding, followed by incubation with purified VHHs at concentrations ranging from 50 μM to 5 μM for 1 hr. After one wash in PBS/BSA 2%, cells were incubated for 1 hr with an anti-6His tag antibody (mouse), washed twice with PBS/BSA 2%, and incubated for 45 min with an Alexa647-conjugated anti-mouse secondary antibody. After two last washes in PBS/BSA 2%, cells were fixed by incubation for 15 min with PBS/PFA 2%, washed once with PBS and finally resuspended in PBS and stored at 4° C. Fluorescence levels were assessed using an Attune NxT Flow Cytometer (Thermo Fisher Scientific). […] No labeling of the CHO WT control cells was detected with all the tested VHHs (not shown). The VHH K_{d app} were calculated using GraphPad Prism software (FIG. 11-B; 12-B).
This is another data set of the same source.

T1 sequence (P02786 89-760): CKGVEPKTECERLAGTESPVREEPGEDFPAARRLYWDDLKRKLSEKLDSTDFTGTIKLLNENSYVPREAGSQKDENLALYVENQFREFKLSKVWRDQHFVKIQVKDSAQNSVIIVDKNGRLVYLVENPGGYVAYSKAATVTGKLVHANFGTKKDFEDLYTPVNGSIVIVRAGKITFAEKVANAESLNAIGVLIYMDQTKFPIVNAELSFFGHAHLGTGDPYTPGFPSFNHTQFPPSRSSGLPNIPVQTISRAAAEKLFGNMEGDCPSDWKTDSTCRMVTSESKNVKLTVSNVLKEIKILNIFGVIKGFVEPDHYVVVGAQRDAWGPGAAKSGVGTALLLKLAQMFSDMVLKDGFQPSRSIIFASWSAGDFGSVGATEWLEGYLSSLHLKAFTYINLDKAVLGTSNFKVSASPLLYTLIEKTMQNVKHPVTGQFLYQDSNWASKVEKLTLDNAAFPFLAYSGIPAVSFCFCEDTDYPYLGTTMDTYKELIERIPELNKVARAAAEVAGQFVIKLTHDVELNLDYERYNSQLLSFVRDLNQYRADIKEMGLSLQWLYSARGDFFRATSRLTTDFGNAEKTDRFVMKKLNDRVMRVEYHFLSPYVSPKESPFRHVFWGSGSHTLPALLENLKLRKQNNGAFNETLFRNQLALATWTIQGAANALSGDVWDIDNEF
T5 sequence (Q62351 whole entry, the tested form may be a part): as the sequence (Q62351 whole entry) above
T2 sequence (Q62351 89-763): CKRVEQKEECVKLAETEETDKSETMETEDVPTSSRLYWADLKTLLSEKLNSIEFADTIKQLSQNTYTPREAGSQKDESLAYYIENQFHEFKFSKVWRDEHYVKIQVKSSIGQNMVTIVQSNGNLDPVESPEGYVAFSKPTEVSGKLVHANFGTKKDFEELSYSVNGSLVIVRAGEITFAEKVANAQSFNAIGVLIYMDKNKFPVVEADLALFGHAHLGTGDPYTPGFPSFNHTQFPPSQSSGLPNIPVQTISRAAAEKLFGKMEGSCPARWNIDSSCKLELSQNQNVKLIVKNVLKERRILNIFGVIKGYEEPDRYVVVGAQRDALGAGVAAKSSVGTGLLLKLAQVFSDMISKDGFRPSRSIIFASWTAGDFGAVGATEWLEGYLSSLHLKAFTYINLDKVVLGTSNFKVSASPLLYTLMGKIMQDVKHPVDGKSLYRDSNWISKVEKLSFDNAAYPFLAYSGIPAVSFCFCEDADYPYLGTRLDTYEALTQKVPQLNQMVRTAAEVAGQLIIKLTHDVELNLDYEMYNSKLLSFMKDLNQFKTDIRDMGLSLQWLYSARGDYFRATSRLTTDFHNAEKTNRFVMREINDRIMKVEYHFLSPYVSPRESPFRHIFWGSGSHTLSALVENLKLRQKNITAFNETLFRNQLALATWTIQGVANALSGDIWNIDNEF

B1: VHH B (B8) (VHH)
VHH: EVQLVESGGGVVQPGGSLRLSCAASGEIFSINFMRWYRQAPGKQREWVAGFTRDGSTNYPDSAKGRFTISRDNAKNTVYLQIDSLKPEDTAVYYCYMLDTWGQGTQVTVSS
For orientation: koff means the rate constant with which the complex falls apart. By kon is commonly meant the rate constant with which the complex forms. By EC50 (read off the curve) is commonly meant the concentration that produces a half-maximal response. Take B1: the Kd in assay [1] worked out at 0.0559 nM; in assay [2] it was 27 nM; in [3], 0.0951 nM; in [4], 37.5 nM; in [5], 1.7 nM; in assay [6], 7.5 nM. Also, the Kd in assay [7] was found to be 2.2 nM. Further, the figures for the koff in [1], in assay [2] and in assay [3] were 3.06e-05 s⁻¹, 0.0243 s⁻¹ and 9.54e-05 s⁻¹, respectively. In addition, the results for the kon in [1], in assay [2] and in assay [3] were 677000 M⁻¹ s⁻¹, 1.23e+06 M⁻¹ s⁻¹ and 1e+06 M⁻¹ s⁻¹, respectively. Besides, the Ki in [8] and in assay [9] was 56.2 nM each time. Also, the concentration for a half-maximal effect (EC50 (read off the curve)) in [10] was approximately 4 nM.

B2: B8-MALAT1-ASO (VHH, not shown: small tags and cut ends)
VHH: EVQLVESGGGVVQPGGSLRLSCAASGEIFSINFMRWYRQAPGKQREWVAGFTRDGSTNYPDSAKGRFTISRDNAKNTVYLQIDSLKPEDTAVYYCYMLDTWGQGTQVTVSS
modifications: MALAT1 gapmer antisense oligonucleotide linked to the VHH
notes: also called VHH-MALAT1-ASO wherein VHH is B8
For the molecule B2, in assay [9], the Ki came out at 60.9 nM.

B3: 13C3-HC-C5h20 (antibody)
heavy: QVQLQQSGPELVRPGVSVKISCKGSGYTFTDYAMHWVKQSHAKSLEWIGVISTKYGKTNYNQKFKGKATMTVDKSSSTAYMELARLTSEDSAIYYCARGDDGYSWGQGTSVTVSSAKTTPPSVYPLAPGSAAQTNSMVTLGCLVKGYFPEPVTVTWNSGSLSSGVHTFPAVLQSDLYTLSSSVTVPSSTWPSETVTCNVAHPASSTKVDKKIVPRDCGCKPCICTVPEVSSVFIFPPKPKDVLTITLTPKVTCVVVDISKDDPEVQFSWFVDDVEVHTAQTQPREEQFNSTFRSVSELPIMHQDWLNGKEFKCRVNSAAFPAPIEKTISKTKGRPKAPQVYTIPPPKEQMAKDKVSLTCMITDFFPEDITVEWQWNGQPAENYKNTQPIMDTDGSYFVYSKLNVQKSNWEAGNTFTCSVLHEGLHNHHTEKSLSHSPGGGGGMAEVQLVESGGGVVQPGGSLRLSCAASGTDFSINFIRWYRQAPGKGLEFVAGFTATGNTNYADSVKGRFTISRDNAKNAVYLQMNSLRPEDTAVYYCYMLDKWGQGTQVTVSSAAA
light: DVVMTQTPLSLPVSLGDQASISCRSGQSLVHSNGNTYLHWYLQKPGQSPKLLIYTVSNRFSGVPDRFSGSGSGSDFTLKISRVEAEDLGVYFCSQNTFVPWTFGGGTKLEIKRADAAPTVSIFPPSSEQLTSGGASVVCFLNNFYPKDINVKWKIDGSERQNGVLNSWTDQDSKDSTYSMSSTLTLTKDEYERHNSYTCEATHKTSTSPIVKSFNRNEC
notes: homodimeric fusion, bivalent for TfR
B3: the Bmax in assay [11] is 1470 RFI. The Kd in assay [12] stood at 22.3 nM.

B4: 13C3-HC-C5h24 (antibody)
heavy: QVQLQQSGPELVRPGVSVKISCKGSGYTFTDYAMHWVKQSHAKSLEWIGVISTKYGKTNYNQKFKGKATMTVDKSSSTAYMELARLTSEDSAIYYCARGDDGYSWGQGTSVTVSSAKTTPPSVYPLAPGSAAQTNSMVTLGCLVKGYFPEPVTVTWNSGSLSSGVHTFPAVLQSDLYTLSSSVTVPSSTWPSETVTCNVAHPASSTKVDKKIVPRDCGCKPCICTVPEVSSVFIFPPKPKDVLTITLTPKVTCVVVDISKDDPEVQFSWFVDDVEVHTAQTQPREEQFNSTFRSVSELPIMHQDWLNGKEFKCRVNSAAFPAPIEKTISKTKGRPKAPQVYTIPPPKEQMAKDKVSLTCMITDFFPEDITVEWQWNGQPAENYKNTQPIMDTDGSYFVYSKLNVQKSNWEAGNTFTCSVLHEGLHNHHTEKSLSHSPGGGGGMAEVQLVESGGGVVQPGGSLRLSCAASGTDFSINFIRWYRQAPGKGLEFVAGFTATGNTNYADSMKGRFTISRDNAKNTLYLQMNSLRPEDTAVYYCYMLDKWGQGTQVTVSSAAA
light: DVVMTQTPLSLPVSLGDQASISCRSGQSLVHSNGNTYLHWYLQKPGQSPKLLIYTVSNRFSGVPDRFSGSGSGSDFTLKISRVEAEDLGVYFCSQNTFVPWTFGGGTKLEIKRADAAPTVSIFPPSSEQLTSGGASVVCFLNNFYPKDINVKWKIDGSERQNGVLNSWTDQDSKDSTYSMSSTLTLTKDEYERHNSYTCEATHKTSTSPIVKSFNRNEC
In the case of B4, in assay [11], the Bmax worked out at 781 RFI. This molecule yielded a Kd in assay [12] of 20.2 nM.

B5: C12b-NT(8-13) (VHH)
VHH: QVQLVQSGGGLVQPGGSLRLSCAASGFTFSAYAMSWVRQAPGKGRELVASISRTGDGTYYADGMKGRFTISRDNAENTVSLQINSLKPEDTAIYYCGAGINPTKYWGQGTQVTVSS
Regarding B5, the Kd in [13] was 1860 nM.

B6: VHH A12 (C5^V12) (VHH)
VHH: EVQLVESGGGVVQPGGSLKLSCVASGTDFSINFIRWYRQAPGKQREFVAGITATGNTNYADSMKGRFTISRDNTKNAVYLQIDSLKPEDTAVYYCYMLDKWGQGTQVTVSS
Take B6: in assay [14], the Kd is 363 nM.

B7: C5h18-NT(8-13) (VHH)
VHH: EVQLVESGGGVVQPGGSLKLSCVASGTDFSINFIRWYRQAPGKGLEFVAGFTATGNTNYADSVKGRFTISRDNAKNTLYLQMNSLRPEDTAVYYCYMLDKWGQGTQVTVSS
In the case of B7, the Kd in assay [13] came out at 16.8 nM.

The values are drawn from patent US20230414780A1 (VECT HORUS, published 2023).
